Test results as given in publication PMC5175494.

Assays:
Troponin C = Troponin C (UniProt P63316); settings: cited from earlier work
[1] = biological target: human cardiac T53C-IAANS TnC (human) (UniProt P63316); assay: stopped-flow fluorescence; apparent; 1 uM TnC T53C-IAANS with saturating Ca2+ and increasing concentrations of TnI128-180, Ca2+ removed with 10 mM EGTA; rate of Ca2+ dissociation followed by IAANS fluorescence; 15°C; 10 mM MOPS, 150 mM KCl, pH 7.0

Kd [1] [µM] | Substance | Kd (Troponin C) [µM]
 | Troponin I (from UniProt P19429) | 1.2
3 | TnI_(128−180) peptide (from UniProt P19429 128-180) | 
